Test results: the supplement of paper PMC9233669
Variants at the floor of the assay were thinned out.

Columns and labels:
biotinyl-Phe-oxazolone = assay: self-aminoacylation, catalytic enhancement (BFO) (fold over background); higher = more active; k-Seq, kA / k0A0; sequences stand for … in GGGAAUGGAUCCACAUCUACGAAUUC…UUCACUGCAGACUUGACGAAGCUG
Summary of the method: (§1)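 Mutagenized RNA pools with a 21-nt variable region (0.43 μM) were reacted with each biotinyl-aminoacyl-oxazolone at 2–1250 μM for 90 minutes at room temperature, in 50 μL HEPES/NaCl/KCl/MgCl2/CaCl2 buffer containing 5% acetonitrile at pH 6.9–7.0. RNA captured on streptavidin was quantified by triplicate qPCR and by Illumina sequencing. The fraction reacted for each sequence was fit to a pseudo-first-order model with bootstrapping, and catalytic enhancement is the median kA divided by the uncatalyzed rate, taken as the low-activity peak of a bimodal Gaussian fit.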

biotinyl-Leu-oxazolone = assay: self-aminoacylation, catalytic enhancement (BLO) (fold over background); higher = more active; k-Seq, kA / k0A0; sequences stand for … in GGGAAUGGAUCCACAUCUACGAAUUC…UUCACUGCAGACUUGACGAAGCUG
Summary of the method: as §1

biotinyl-Ile-oxazolone = assay: self-aminoacylation, catalytic enhancement (BIO) (fold over background); higher = more active; k-Seq, kA / k0A0; sequences stand for … in GGGAAUGGAUCCACAUCUACGAAUUC…UUCACUGCAGACUUGACGAAGCUG
Summary of the method: as §1

biotinyl-Trp-oxazolone = assay: self-aminoacylation, catalytic enhancement (BWO) (fold over background); higher = more active; k-Seq, kA / k0A0; sequences stand for … in GGGAAUGGAUCCACAUCUACGAAUUC…UUCACUGCAGACUUGACGAAGCUG
Summary of the method: as §1

biotinyl-Val-oxazolone = assay: self-aminoacylation, catalytic enhancement (BVO) (fold over background); higher = more active; k-Seq, kA / k0A0; sequences stand for … in GGGAAUGGAUCCACAUCUACGAAUUC…UUCACUGCAGACUUGACGAAGCUG
Summary of the method: as §1

biotinyl-Met-oxazolone = assay: self-aminoacylation, catalytic enhancement (BMO) (fold over background); higher = more active; k-Seq, kA / k0A0; sequences stand for … in GGGAAUGGAUCCACAUCUACGAAUUC…UUCACUGCAGACUUGACGAAGCUG
Summary of the method: as §1

Sequence | self-aminoacylation (biotinyl-Phe-oxazolone) | self-aminoacylation (biotinyl-Leu-oxazolone) | self-aminoacylation (biotinyl-Ile-oxazolone) | self-aminoacylation (biotinyl-Trp-oxazolone) | self-aminoacylation (biotinyl-Val-oxazolone) | self-aminoacylation (biotinyl-Met-oxazolone)
GAGUUUGCCAAUAGUCGCAAG [Fam3.1 aminoacylation ribozyme variant] | 4.39 | 1.09 | 1.7 | 2.08 | 1.48 | 1.1
CUUAACCUGGUCAUCGAGUGA [Fam2.1 aminoacylation ribozyme variant] | 5.1 | 4.95 | 2.9 | 6.88 | 3.11 | 5.64
AUUCAACUAGGUCAUCGCGUG [Fam2.2 aminoacylation ribozyme variant] | 65.2 | 13.6 | 5.91 | 9.5 | 5.81 | 9.12
CCACACUUCAAGCAUUCGAUC [Fam1B.1 aminoacylation ribozyme variant] | 1.11 | 0.577 | 0.664 | 0.748 | 0.856 | 0.629
AAGUUUUCUAAUAGUCGCAAG [Fam3.1 aminoacylation ribozyme variant] | 2.64 | 1.32 | 1.51 | 1.58 | 1.31 | 1.23
AAGUUUGGUAAGAGUCGCAAG [Fam3.1 aminoacylation ribozyme variant] | 1.7 | 1.43 | 1.58 | 1.31 | 1.3 | 1.3
AUUCACCUAGCUCAUAGGGUG [Fam2.2 aminoacylation ribozyme variant] | 1.04 | 1.37 | 1.08 | 0.658 | 1.13 | 1.24
AUUCACCUUGGUCAUCGAGUG [Fam2.2 aminoacylation ribozyme variant] | 8.55 | 4.66 | 2.69 | 3.59 | 2.49 | 3.96
AUUACCCUGGACAUCCAGUGA [Fam2.1 aminoacylation ribozyme variant] | 15.9 | 3.82 | 2.61 | 4.13 | 2.51 | 3.32
CUACUUCAAACAAUCGGGCCG [Fam1A.1 aminoacylation ribozyme variant] | 1.76 | 1.32 | 1.53 | 1.22 | 0.974 | 1.19
AUUGCCCUGGUCAUUGAGUGA [Fam2.1 aminoacylation ribozyme variant] | 64.3 | 7.3 | 3.72 | 9.51 | 4.2 | 8.44
CUACUUCAAAAAAUCGAUCUG [Fam1A.1 aminoacylation ribozyme variant] | 1.46 | 0.6 | 0.663 | 0.604 | 0.585 | 0.601
AUUCACCUAGGUCAUCGGUUC [Fam2.2 aminoacylation ribozyme variant] | 4.35 | 1.19 | 1.33 | 1.07 | 1.43 | 1.43
CUACUUCAAACAAUCAGGCUG [Fam1A.1 aminoacylation ribozyme variant] | 2.7 | 0.78 | 0.911 | 1.33 | 0.723 | 0.549
AUUCACCUAGGUCUUCGGGUG [Fam2.2 aminoacylation ribozyme variant] | 27.4 | 5.48 | 3.33 | 4.38 | 3.71 | 4.46
AGUCACCUAGGUCAGCGGGUG [Fam2.2 aminoacylation ribozyme variant] | 39.5 | 5.54 | 4.2 | 5.59 | 3.77 | 4.31
AUUACUCUGGUCGUCGAGUGA [Fam2.1 aminoacylation ribozyme variant] | 0.488 | 1.31 | 1.08 | 0.657 | 1.16 | 1.16
AUUCACCGAGGUCAGCGGGUG [Fam2.2 aminoacylation ribozyme variant] | 38.8 | 6.67 | 5.26 | 6.61 | 4.67 | 5.57
CCACAAUUGAAGCAAUCGGUC [Fam1B.1 aminoacylation ribozyme variant] | 0.687 | 0.716 | 0.913 | 1.16 | 0.869 | 0.746
CUAGUUCAAACAAGCGGUCUG [Fam1A.1 aminoacylation ribozyme variant] | 1.21 | 1.08 | 1.2 | 1.19 | 0.93 | 1.54
CUACUUCAUACAAUCGUUCUG [Fam1A.1 aminoacylation ribozyme variant] | 0.733 | 0.477 | 0.535 | 0.371 | 0.655 | 0.476
AUUAUCCUGGUCAUCGUGUGA [Fam2.1 aminoacylation ribozyme variant] | 28.6 | 3.83 | 2.15 | 5.91 | 2.05 | 3.54
AUUCAGCUAGGUCGUCGGGUG [Fam2.2 aminoacylation ribozyme variant] | 13.1 | 3.24 | 2.53 | 3.08 | 2.62 | 3.24
AUUACCAAGGUCAUCGAGUGA [Fam2.1 aminoacylation ribozyme variant] | 43.2 | 8.44 | 3.64 | 9.76 | 3.96 | 7.64
CUACAUCAAACAACCGGUCUG [Fam1A.1 aminoacylation ribozyme variant] | 1.22 | 1.14 | 0.885 | 1.47 | 1.11 | 1.31
AUGCACCUAGUUCAUCGGGUG [Fam2.2 aminoacylation ribozyme variant] | 13.6 | 3.07 | 2.77 | 4.29 | 2.37 | 2.73

Sequence | self-aminoacylation (biotinyl-Phe-oxazolone) | self-aminoacylation (biotinyl-Leu-oxazolone) | self-aminoacylation (biotinyl-Ile-oxazolone) | self-aminoacylation (biotinyl-Trp-oxazolone) | self-aminoacylation (biotinyl-Val-oxazolone) | self-aminoacylation (biotinyl-Met-oxazolone)
AUCCACCUAGGUCAUCCGGUG [Fam2.2 aminoacylation ribozyme variant] | 46.1 | 7.31 | 5.53 | 7.83 | 6.56 | 7.38
AAGUUUGCUGAUAGUCGGAAG [Fam3.1 aminoacylation ribozyme variant] | 0.837 | 0.849 | 0.72 | 0.832 | 0.838 | 0.933
AUCACCCUGUUCAUCGAGUGA [Fam2.1 aminoacylation ribozyme variant] | 30 | 5.15 | 2.85 | 5.52 | 2.78 | 4.68
AAGCUUGCUAAUAGUCGGAAG [Fam3.1 aminoacylation ribozyme variant] | 3.45 | 1.21 | 1.48 | 1.65 | 1.3 | 1.34
ACCCACUUCAAGCAAUCGGUC [Fam1B.1 aminoacylation ribozyme variant] | 23.3 | 1.37 | 1.11 | 15.2 | 1.29 | 1.15
AUUCAGCAAGGUCAUCGGGUG [Fam2.2 aminoacylation ribozyme variant] | 47.9 | 7.63 | 4.51 | 7 | 4.9 | 6.23
CUGCUUCAGACAAUCGGUCUG [Fam1A.1 aminoacylation ribozyme variant] | 1.78 | 1.1 | 0.949 | 1.28 | 0.929 | 1.22
AUUCACCUAGGCCAUAGGGUG [Fam2.2 aminoacylation ribozyme variant] | 4.48 | 2.54 | 2.09 | 2.58 | 2.11 | 2.45
AUUACCCUGUUCAUUGAGUGA [Fam2.1 aminoacylation ribozyme variant] | 83.6 | 12.7 | 5.73 | 16.3 | 5.4 | 13.8
AUGCACCUAGGUCAACGGGUG [Fam2.2 aminoacylation ribozyme variant] | 14.2 | 2.68 | 2.45 | 2.21 | 1.95 | 2.51
AAGUUUGCGAAUAGUCGCAGG [Fam3.1 aminoacylation ribozyme variant] | 4.04 | 1.89 | 1.7 | 2.44 | 1.59 | 1.79
CCACACUACAAGCAACCGGUC [Fam1B.1 aminoacylation ribozyme variant] | 1.03 | 0.948 | 1.29 | 0.793 | 0.674 | 0.649
CCACACGUCAAGCGAUCGGUC [Fam1B.1 aminoacylation ribozyme variant] | 1.06 | 1.11 | 1.21 | 1.61 | 2.3 | 1.14
AUGUAUGCUAAUAGUCGCAAG [Fam3.1 aminoacylation ribozyme variant] | 3.25 | 1.14 | 1.62 | 1.95 | 1.39 | 1.67
CUACUUGAAACAAUCUGUCUG [Fam1A.1 aminoacylation ribozyme variant] | 0.472 | 0.636 | 0.655 | 0.496 | 0.657 | 0.747
AUUCCCCUAGGUCAUAGGGUG [Fam2.2 aminoacylation ribozyme variant] | 17.1 | 6.57 | 3.38 | 4.78 | 3.08 | 4.99
UAGUCUGCUAAUAGUCGCAAG [Fam3.1 aminoacylation ribozyme variant] | 32.7 | 1.83 | 2.01 | 9.92 | 1.81 | 2.17
AUUCACCUAGGACCUCGGGUG [Fam2.2 aminoacylation ribozyme variant] | 20.7 | 3.69 | 2.77 | 3.54 | 2.63 | 3.6
AUUCACCUAGGUCUUCGGGGG [Fam2.2 aminoacylation ribozyme variant] | 12 | 3.62 | 3.04 | – | 3.04 | 2.43
AAGCUUGCUGAUAGUCGCAAG [Fam3.1 aminoacylation ribozyme variant] | 4.23 | – | 2.19 | 3.03 | 2.45 | 2.4
AUUCACCUAGGUCAUCGAGUU [Fam2.2 aminoacylation ribozyme variant] | 7.47 | 4.79 | 2.69 | – | 2.25 | 3.3
AUUCACCUGGGUCAUCGGGCG [Fam2.2 aminoacylation ribozyme variant] | – | 5.26 | 3.58 | 2.91 | 4.75 | 4.48
CAACACUUCAAGCAAUCGGGC [Fam1B.1 aminoacylation ribozyme variant] | 4.52 | 2.2 | 2.15 | – | 2.23 | 2.2
AUUCACUUAGGUCAUCGGGUA [Fam2.2 aminoacylation ribozyme variant] | – | – | 2.29 | – | 2.15 | 2.38
CCACACUUCAUGCAAUCGGCC [Fam1B.1 aminoacylation ribozyme variant] | 14.2 | 2.72 | 2.44 | – | 2.8 | 2.9
